Experimental data as given in paper doi:10.1101/2023.05.02.539157, “Toxic anti-phage defense proteins inhibited by intragenic antitoxin proteins” (bioRxiv, 2023).
Residue numbers refer to the chain shown, from its start.

Experiments:
[1] = target: T1, RpnAL (full-length RpnA, wild type, in the native RpnALS complex) (E. coli, UniProt P31667 1-292); assay: SEC-MALS; multi-angle light scattering coupled with size exclusion chromatography of purified RpnAS and of the purified RpnALS complex; conditions: both partners purified
T1 construct: source: E. coli, WT rpnA gene in an overexpression vector, C-terminally tagged intein fusion, purified together with RpnAS
T1 sequence (looked up): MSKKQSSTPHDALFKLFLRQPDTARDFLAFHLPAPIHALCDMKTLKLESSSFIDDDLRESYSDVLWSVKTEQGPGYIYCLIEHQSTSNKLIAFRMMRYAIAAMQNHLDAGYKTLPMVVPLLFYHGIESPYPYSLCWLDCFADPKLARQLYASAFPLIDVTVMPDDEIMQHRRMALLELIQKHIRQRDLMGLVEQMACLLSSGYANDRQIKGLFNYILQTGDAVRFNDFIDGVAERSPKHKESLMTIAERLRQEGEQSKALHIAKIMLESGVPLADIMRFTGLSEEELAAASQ

[2] = target: the molecule itself; assay: as above
[3] = target: T2, RpnAL* (RpnA_(K240R+E241D+M244L)) (E. coli, UniProt P31667 1-292, K240R | E241D | M244L); assay: SEC; Superdex 200 column; individually purified proteins alone and mixed, and the native co-purified RpnALS complex; peak fractions checked by SDS-PAGE; conditions: both partners purified
T2 construct: source: E. coli, overexpressed as C-terminally tagged intein fusion protein, purified
T2 sequence (looked up): T1 sequence (looked up) with K240R, E241D, M244L

B1: RpnAS (natural protein, E. coli, UniProt P31667 244-292, looked up)
chain: MTIAERLRQEGEQSKALHIAKIMLESGVPLADIMRFTGLSEEELAAASQ
notes: also called RpnS of RpnA; small C-terminal protein of RpnA
stoichiometry N [1]: 1 RpnAS per RpnAL (2:2) | stoichiometry N [2]: 2 | binding result [3]: binds
